Reference: the supplement of paper PMC9170038

System: MS2 coat protein
Assay: apparent KD of MS2 coat protein; designed switch direction (-1 OFF switch, 1 ON switch): -1; higher = weaker reporter binding
How it was run: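 Apparent KD, taken as the median over clusters for each design, was obtained by curve-fitting normalised cluster fluorescence. Designed RNA switches had been transcribed on Illumina chips by stalled E. coli RNA polymerase and titrated with SNAP-549-labelled MS2 coat protein, doubling from 0.7 or 1.5 nM to 3 µM.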

[1] = input ligand: microRNA oligo, concentration not stated
[2] = Eterna round: R95, input ligand: microRNA oligo, concentration not stated
[3] = Eterna round: R95, input ligand: FMN 200 uM
[4] = Eterna round: R95, input ligand: none

Sequence | apparent KD of MS2 coat protein (input ligand: FMN 200 uM) [nM] | apparent KD of MS2 coat protein (input ligand: none) [nM] | apparent KD of MS2 coat protein [2] [nM] | other results
GGAUAAAAGUCAGGAUAUACGUAUCACUAACGAGUAGAAGGGACACAUGAGGAUCACCCAUGUGAGUUCUCAAUAAGAAACACG [Prohibition 62 - Jieux - Exclusion NG 1] (Eterna round: R96, puzzle: Exclusion NG 1) | 13.8 | 14.9 |  | apparent KD of MS2 coat protein [1]: 12.2 nM
GGAUAGUGAGGAUAUCGAUGUUAGGAGGAGUAGAUAGGAGGCGAGAAGGCACAUGAGGAUCACCCAUGUAUGGA [JR_Exclu4_Sub068] (puzzle: Exclusion 4) |  |  | 47.8 | 
GGAUAGUGAGGAUAUGCAUACGGUGUAAGUCCCAGAUCGAAACAUGAGGAUCACCCAUGUAGAAGGCGCAAAAC [Begerila] (puzzle: Exclusion 2) |  |  | 20.2 | 
GGAUAUAACGUAGGAUAUGAGAGAAACAGACGAUCAGAAGGACGACAUGAGGAUCACCCAUGUGAUCUAUCAAUAUUAUACAUG [Prohibition 97 - Jieux - Exclusion NG 1] (Eterna round: R96, puzzle: Exclusion NG 1) | 446 | 300 |  | apparent KD of MS2 coat protein [1]: 180 nM
GGAUAUCGAGGAUAUACAUGAGGAUCACCCAUGUUGAAUCCGUGGGAUGGCCGACGAUGUAGAAGGUGACUCAU [Eternabot (Original) Solution 27] (Eterna round: R97, puzzle: Exclusion 3) | 134 | 232 |  | 
GGAUCACAUGUUAGGAUAUGCAGGUCCUUGGAUCUGCAGAAGGGACAUGAGGAUCACCCAUGUCAUGAAGAUCC [Mat - Exclusion 4 - Eli Mod - D52] (Eterna round: R97, puzzle: Brourd's mod of Exclusion 4) | 43.4 | 21 |  | 
GGAUCAUAUGUCAGGAUAUGCAGGUCCUUGGAUCUGCAGAAGGGACAUGAGGAUCACCCAUGUCAUGUAGAUCC [Mat - Exclusion 4 - Eli Mod - D54] (Eterna round: R97, puzzle: Brourd's mod of Exclusion 4) | 116 | 25.3 |  | 
GGAUCCUGGGUCAGGAUAUGCUGACAGCUUUGUCAGCAGAAGGGACAUGAGGAUCACCCAUGUGCUCGGUUUUG [Magic-20] (puzzle: Brourd's mod of Exclusion 4) |  |  | 9.68 | 
GGAUCGAAAGUGAGGAUAUACCACUGGAUACAGUGGUAGAAGGCACAUGAGGAUCACCCAUGUCUCUACGAUCC [Fiskers BMX 4 - 42] (puzzle: Brourd's mod of Exclusion 4) |  |  | 13 | apparent KD of MS2 coat protein [3]: 39.9 nM; apparent KD of MS2 coat protein [4]: 15 nM
GGAUCGAAUGUCAGGAUAUGCUGGUCCUUGGAUCAGCAGAAGGGACAUGAGGAUCACCCAUGUCCUCUCGGUCC [Eli bmx4 4.52] (Eterna round: R97, puzzle: Brourd's mod of Exclusion 4) | 222 | 26.5 |  | 
GGAUCGAAUGUGAGGAUAUACCACUGGAUACAGUGGUAGAAGGCACAUGAGGAUCACCCAUGUCCUUACGAUCC [Fiskers BMX 4 - 47] (puzzle: Brourd's mod of Exclusion 4) |  |  | 74.2 | 
GGAUCGAAUGUGAGGAUAUGCUGGUCCUUGGAUCAGCAGAAGGCACAUGAGGAUCACCCAUGUGAAGACGGUCC [Eli bmx4 4.31] (Eterna round: R97, puzzle: Brourd's mod of Exclusion 4) | 201 | 41.4 |  | 
GGAUCGAGUGUGAGGAUAUGCUGGUCCUUGGAUCAGCAGAAGGCACAUGAGGAUCACCCAUGUGGAGACGGUCC [JL bmx4 3.17] (puzzle: Brourd's mod of Exclusion 4) |  |  | 92.4 | apparent KD of MS2 coat protein [3]: 298 nM; apparent KD of MS2 coat protein [4]: 102 nM
GGAUCUACUGAGGAUAUUACAUCACCCGACUGAUAAGAAGGCAGAACAUGAGGAUCACCCAUGUGGGUAGCCAC [Polaris5] (Eterna round: R97, puzzle: Exclusion 6) | 56.3 | 35.7 |  | 
GGAUCUUGGGUCAGGAUAUGCUGAUAGUUAUGUCAGCAGAAGGGACAUGAGGAUCACCCAUGUGCUUGGUUUUG [Magic-17] (Eterna round: R96, puzzle: Brourd's mod of Exclusion 4) | 40.9 | 17.2 |  | apparent KD of MS2 coat protein [1]: 12.7 nM
GGAUCUUGGGUCAGGAUAUGCUGAUAGUUAUGUCAGCAGAAGGGACAUGAGGAUCACCCAUGUGCUUGGUUUUG [Magic-17] (puzzle: Brourd's mod of Exclusion 4) |  |  | 13.1 | 
GGAUGUUCAGAGGAUAUCGAUCCCGAGACCGGGCGAGAAGGUUGAACAUGAGGAUCACCCAUGUGAGGCCUAAC [Cebezais] (Eterna round: R97, puzzle: Exclusion 6) | 38.5 | 12.7 |  | 
GGCAAACAUGAGGAUCACCCAUGUCAGGAUAUUAGGCGAUCGUCGAUAGACGAUAGCCUGAGAAGGGACAUGCC [Mat - Exclusion 1 - Eli Mod - D16] (Eterna round: R97, puzzle: Exclusion 1) | 391 | 85.2 |  | 

Sequence | apparent KD of MS2 coat protein (input ligand: FMN 200 uM) [nM] | apparent KD of MS2 coat protein (input ligand: none) [nM] | apparent KD of MS2 coat protein [2] [nM] | other results
GGCAAUAUGUAGGAUAUCGUAUCGGAAACGAUACGAGAAGGGCAAACAUGAGGAUCACCCAUGUUCUUCAAGCC [Fiskers Ex 6 - 11] (puzzle: Exclusion 6) |  |  | 15.6 | 
GGCACACAUGAGGAUCACCCAUGUGAGGAUAUGUGGCGAUCGUCGAUAGACGAUAGCCACAGAAGGCACAGGCC [Mat - Exclusion 1 - Eli Mod - D21] (Eterna round: R97, puzzle: Exclusion 1) | 23.2 | 19.2 |  | 
GGCACACAUGAGGAUCACCCAUGUGAGGAUAUGUGGCGAUCGUCGAUAGACGAUAGCCACAGAAGGCACAUGCC [Mat - Exclusion 1 - Eli Mod - D9] (Eterna round: R97, puzzle: Exclusion 1) | 39.4 | 17.8 |  | 
GGCACACAUGUAGGAUAUCUGCACGUUUAGUGCAGAGAAGGACAUGAGGAUCACCCAUGUAAUUAAGAUCAAUUAUUAAGUGCC [ENG1/3-A2] (Eterna round: R96, puzzle: Exclusion NG 1) | 564 | 58.3 |  | apparent KD of MS2 coat protein [1]: 48.6 nM
GGCAUAAACGAGGAUAUCGUAUCGGAAACGAUACGAGAAGGUGUAACAUGAGGAUCACCCAUGUUCCUCAAGCC [Mat - Exclusion 6 - Eli Mod - D58] (puzzle: Exclusion 6) |  |  | 38.1 | 
GGCAUGCAAGGAUAUACUUACAGUGAUGUUCGAAUAAGGCUACUUGAGGAUCACCCAAGUAGAAGGUGCAUGCC [Exclusion 2 (Mod JL EX2 4.74 Vienna UCT mod of Mamaed)] (Eterna round: R97, puzzle: Exclusion 2) | 203 | 26.8 |  | 
GGCAUGCAAGGAUAUACUUACGGUGAUGUUCGAAGCUUUCUACUUGAGGAUCACCCAAGUAGAAGGUGCAUGCC [jl-ex2.4.75 ViennaUCT mod] (Eterna round: R97, puzzle: Exclusion 2) | 10.5 | 21.1 |  | 
GGCAUGUGAGGAUAUGUACCUGAGUGCUUUGCGCUCAGGAAACAGAAGGCACAUGAGGAUCACCCAUGUGAUAA [jl-ex4-4.49 ViennaUCT mod] (Eterna round: R97, puzzle: Exclusion 4) | 67.7 | 710 |  | 
GGCCAGAUAGGAUAUACUUGAGGAUCACCCAAGUAAAGGAGCAAGCUCCGAUCCUUUGGUAGAAGGAUCGGCCA [Diqulees] (Eterna round: R97, puzzle: Exclusion 3) | 92.7 | 52.8 |  | 
GGCCGUAAUAAGGAUAUCACUAGCCUCGGCUAGUGAGAAGGUAUUACAUGAGGAUCACCCAUGUGGUCAGGCCA [E6/4-B2] (Eterna round: R97, puzzle: Exclusion 6) | 903 | 285 |  | 
GGCCUUCCGCAAGCUUUUUACAUGAGGAUCACCCAUGUGGUUUUUAGUCUUAUGUUCGGGCCCGUGUGGGCUCGGGC [-25.5, -46.5, A 13%] (Eterna round: R97, puzzle: Sensor, turn-off variant 1) | 28.4 | 29 |  | 
GGCGAAGUAGGAUAUACAUGAGGAUCACCCAUGUAACCUGAUGGCGUAGGUCUUCUAUGUAGAAGGGCUGCGCC [jl-ex3-4.38 ViennaUCT mod] (Eterna round: R97, puzzle: Exclusion 3) | 16 | 15.6 |  | 
GGCGGACAUGAGGAUCACCCAUGUCAGGAUAUUAGGCGAUCGUCGAUAGACGAUAGCCUGAGAAGGGACGCGCC [Mat - Exclusion 1 - Eli Mod - D13] (Eterna round: R97, puzzle: Exclusion 1) | 18.6 | 17.7 |  | 
GGCUGACAUGUAGGAUAUCUGCACGUGUAGUGCAGAGAAGGACAUGAGGAUCACCCAUGUAUAGCGACUUCGGUCGCAACAGCC [ENG1/2-A3] (Eterna round: R96, puzzle: Exclusion NG 1) |  |  |  | apparent KD of MS2 coat protein [1]: 35.9 nM
GGGAAACAUGAGGAUCACCCAUGUAAGGAUAUGCAAAAGGAUAUAGAAGGAAAAAAAAGCAGAAGGUACAAAGG [salish99-ex1_r3_100] (puzzle: Exclusion 1) |  |  | 59.8 | apparent KD of MS2 coat protein [3]: 68.8 nM; apparent KD of MS2 coat protein [4]: 57.3 nM
GGGAAACAUGAGGAUCACCCAUGUGAGGAUAUGAAAAAGAAAAGAAAAGAAAGAAGAAUCAGAAGGCACAAAGG [salish99-ex1_r3_079] (puzzle: Exclusion 1) |  |  | 36.1 | apparent KD of MS2 coat protein [3]: 75.5 nM; apparent KD of MS2 coat protein [4]: 54.9 nM
GGGAAGAACCAACAAGUAAACAUGAGGAUCACCCAUGUAAACUUCAUGUGCACGCUUUGCGUGCAAGCUCGUCUUAU [AK-miRNA-r3-14] (Eterna round: R97, puzzle: Sensor, turn-off variant 1) | 19.2 | 18.6 |  | 
